Data taken from patent US20120093811A1 (published 2012).
Positions count from the first letter of the chain named.

B1: Source 1 VEGF-D, mature dimeric recombinant human VEGF-D (CSIRO) (ligand)
chain: FAATFYDIETLKVIDEEWQRTQCSPRETCVEVASELGKSTNTFFKPPCVNVFRCGGCCNEESLICMNTSTSYISKQLFEISVPLTSVPELVPVKVANHTGCKCLPTAPRHPYSIIRR
B2: humanized scFv 1A (scFv)
scFv: QVQLVQSGAEVKQPGASVKVSCKASGYTFTGYNMYWVRQAPGQGLEWMGYIDPYNGDTTYNQKFKGRVTMTTDTSTSTAYMELRSLRSDDTAVYYCARTSYYGGMDYWGRGTLVTVASGGGASGGGGSGGGGSDIVMTQTPLSSPVTLGQPASISCRSSQSLVHSNGNTYLHWLQQRPGQPPRLLIYKVSNRFSGVPDRFSGSGAGTDFTLKISRVEAEDVGVYYCSQSTHVPRTFGQGTKLEIKR
notes: also called 1A scFv; clone 1A
B3: Source 2 VEGF-D, purified recombinant human VEGF-D monomer (R&D Systems, Catalog Number 622-VD/CF) (ligand)
chain: FYDIETLKVIDEEWQRTQCSPRETCVEVASELGKSTNTFFKPPCVNVFRCGGCCNEESLICMNTSTSYISKQLFEISVPLTSVPELVPVKVANHTGCKCLPTAPRHPYS
B4: humanized IgG antibody derived from clone HU75 (antibody, V domains shown)
VH: QVQLVQSGAEVKQPGASVKVSCKASGYTFTGYNMYWVRQAPGQGLEWMGYIDPYNGDTTYNQKFKGRVTMTTDTSTSTAYMKLRSLRSDDTAVYYCARTSYYGGMDYWGRGTLVTVAS
VL: DIVMTQTPLSGPVTLGQPASISCRSSQSLVHSNGNTYLHWLQQRPGQPPRLLIYKVSNRFSGVPDRFSGSGAGTDFTLKISRVEAEDVGVYYCSQSTHVPRTFGRGTKLEIKR
notes: IgG
B5: Ig-1A, humanized IgG reformatted from scFv 1A (antibody, V domains shown)
VH: B4 VH with K82E
VL: B4 VL with G11S, R105Q
notes: IgG made in mammalian cells; also called humanized Ig-1A

Legend:
[1] = target: VEGFR-2-EpoR chimeric receptor on VEGFR-2-Ba/F3 cells (mouse, UniProt P35918 20-762); test: cell-based or functional assay
Chain of VEGFR-2-EpoR chimeric receptor on VEGFR-2-Ba/F3 cells (P35918 20-762, change not shown): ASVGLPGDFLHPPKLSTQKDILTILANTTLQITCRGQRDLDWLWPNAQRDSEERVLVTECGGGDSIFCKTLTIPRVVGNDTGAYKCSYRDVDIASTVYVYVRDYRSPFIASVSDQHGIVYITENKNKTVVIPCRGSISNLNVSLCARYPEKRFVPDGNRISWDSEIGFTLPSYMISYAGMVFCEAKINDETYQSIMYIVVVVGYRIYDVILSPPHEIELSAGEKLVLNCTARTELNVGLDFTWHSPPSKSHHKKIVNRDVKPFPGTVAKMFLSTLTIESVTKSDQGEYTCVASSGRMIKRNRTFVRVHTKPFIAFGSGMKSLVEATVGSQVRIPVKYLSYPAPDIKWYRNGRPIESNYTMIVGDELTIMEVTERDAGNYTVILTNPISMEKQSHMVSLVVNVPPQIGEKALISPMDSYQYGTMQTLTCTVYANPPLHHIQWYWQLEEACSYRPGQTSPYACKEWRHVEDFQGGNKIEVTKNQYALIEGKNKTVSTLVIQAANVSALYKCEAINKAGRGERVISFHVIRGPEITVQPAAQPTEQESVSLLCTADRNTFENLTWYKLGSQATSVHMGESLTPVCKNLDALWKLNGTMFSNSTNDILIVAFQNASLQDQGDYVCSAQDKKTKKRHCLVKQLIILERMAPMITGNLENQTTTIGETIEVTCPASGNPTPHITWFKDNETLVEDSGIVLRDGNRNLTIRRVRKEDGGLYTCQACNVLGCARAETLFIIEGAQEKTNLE

[2] = target: T1, VEGF-D (recombinant human; source not given) (human, UniProt O43915 89-205, limits assumed); test: SPR (BIAcore), purified 1A scFv on VEGF-D, repeat 1
T1 construct: also used here as target of IC50 values averaged over Source 1 and Source 2; also called vascular endothelial growth factor-D
T1 sequence: B1 chain
Experimental: (§1) Kinetic values were obtained for the three humanized scFv variants, 1A, 3A and 4A (Table 2). All isolated scFv samples were purified as monomer peaks by anti-FLAG affinity and gel filtration chromatography. BIAcore™ analysis was performed by directly immobilizing VEGF-D on a CM5 surface using amine coupling, with the scFv run as the analyte. Analysis of binding was carried out using the BIAevaluation kinetic analysis software. All repeats were separate protein expressions and were performed at 25° C.
(§2) The binding of purified 1A scFv to VEGF-D was analyzed using a BIAcore™ biosensor (Table 3).

[3] = target: T1, VEGF-D (recombinant human; source not …); test: SPR (BIAcore), purified 1A scFv on VEGF-D, repeat 2
Experimental: as §1, §2

[4] = target: T1, VEGF-D (recombinant human; source not …); test: SPR (BIAcore), purified 1A scFv on VEGF-D, repeat 3
Experimental: as §1, §2

[5] = target: T1, VEGF-D (recombinant human; source not …); test: SPR (BIAcore), purified 1A scFv on VEGF-D, average of three repeats
Experimental: as §1, §2

[6] = target: T1, VEGF-D (recombinant human; source not …); test: SPR (BIAcore), VEGF-D amine-coupled on CM5, purified scFv as analyte
Experimental: scFv variants were fully characterized using a BIAcore™ biosensor. All isolated scFv samples were purified as monomer peaks by anti-FLAG affinity chromatography followed by gel filtration chromatography. BIAcore™ analysis was performed by directly immobilizing VEGF-D on a CM5 surface using amine coupling, with the scFv run as the analyte. Analysis of binding was carried out using the BIAevaluation kinetic analysis software. All repeats were separate protein expressions and were performed at 25° C.
Clones F61, A63, AR7, AW61, CJ37, DI126 and DA18 were produced in large-scale expression cultures and purified by anti-FLAG affinity chromatography and gel filtration. The binding kinetics against VEGF-D were then measured using a BIAcore™ biosensor as described previously.

[7] = target: T1, VEGF-D (recombinant human; source not …); test: SPR (BIAcore), VEGF-D amine-coupled on CM5, purified scFv as analyte, 25 C
Experimental: as §1

[8] = target: B1; test: cell-based or functional assay
[9] = target: B3; test: cell-based or functional assay
[10] = target: B1; test: SPR Protocol A, KD against that of Ig-1A
Experimental: (§3) Protocol A: The first assay format, Protocol A, used an assay system where IgGs were captured on a biosensor chip surface using an anti-human IgG (Fc) antibody and the Source 1 VEGF-D dimer run over the chip as the analyte in solution. This ensured that all IgG molecules were presented to the antigen in an active orientation.
(§4) The SPR protocol was slightly modified to compensate for the dimeric nature of the VEGF-D. Ig-1A or IgG variants were analyzed using an anti-human capture kit as described for Anti-human IgG (Fc) capture above, except that 1000 RU of the IgG or IgG variant was captured on the anti-human chip surface. […] The kinetics generated using this approach are accurate within the experimental parameters set. This standard assay protocol is best suited to studying 1:1 interactions and thus, may not be ideal for analyzing binding between the IgG variants and the VEGF-D dimer. In light of this, Protocol B was also used.

[11] = target: B1; test: SPR Protocol B, KD against that of Ig-1A
Experimental: (§5) Protocol B: In the second assay format, Protocol B, the orientation of the IgGs and the VEGF-D antigen was reversed relative to Protocol A. The Source 1 VEGF-D dimer was immobilized directly on the chip surface by amine coupling and the murine anti-VEGF-D monoclonal antibody, Ig-1A or IgG variants flowed over this surface as analytes at concentrations of 4 nM, 1.33 nM, and 0.44 nM. This protocol allowed avidity effects to be controlled by reducing the density of dimeric VEGF-D immobilized on the chip and in effect reduce the bivalent binding properties of the system being analyzed.
(§6) All four flow cells on a CM5 chip were activated for 7 min at 25° C. using a mixture of NHS.EDC. Flow cell one was used as an unmodified (activated and blocked) reference against flow cells 2-4. Source 1 VEGF-D dimer was diluted to 1-3 μg/ml into 10 mM sodium acetate, pH 4, and injected over three surfaces for different lengths of time to achieve low ligand densities of 10, 15 and 20 RU to minimize avidity effects of the IgG. All surfaces were blocked for 7 min with ethanolamine (1M, pH 8.2) and pre-conditioned using five 10 s injections of 100 mM H₃PO₄; 1M NaCl. Immobilization steps were carried out at a flow rate of 30 μl/min using HBS-N running buffer.
(§7) All IgG binding experiments were performed at 25° C. using HBS-EP+ running buffer. Analytes (murine reference anti-VEGF-D monoclonal antibody and humanized variants) were injected for 200 s at a flow rate of 70 μl/min and dissociation monitored for 250 s. The antigen surfaces were regenerated with a 10 s pulse of 100 mM H₃PO₄; 1M NaCl. Analyte concentrations used for murine and humanized variants were 4 nM, 1.33 nM, and 0.44 nM. Data was processed using the reference surface and double referencing from blank injections. Binding constants for the IgG/antigen interactions were determined from the three antigen surfaces globally fitted to a 1:1 interaction model. Refractive index parameter was constant (RI=0).

[12] = target: B1; test: SPR Protocol A, KD against that of the murine antibody
[13] = target: B1; test: SPR Protocol B, KD against that of the murine antibody
Experimental: as §5
All four flow cells on a CM5 chip were activated for 7 min at 25° C. using a mixture of NHS.EDC. Flow cell one was used as an unmodified (activated and blocked) reference against flow cells 2-4. […]
All IgG binding experiments were performed at 25° C. using HBS-EP+ running buffer. Analytes (murine reference anti-VEGF-D monoclonal antibody and humanized variants) were injected for 200 s at a flow rate of 70 μl/min and dissociation monitored for 250 s. […] Binding constants for the IgG/antigen interactions were determined from the three antigen surfaces globally fitted to a 1:1 interaction model. […]

[14] = target: B1; test: SPR Protocol B: VEGF-D dimer amine-coupled, IgG as analyte
Experimental: as §5, §6, §7

[15] = target: B1; test: SPR Protocol A: IgG captured by anti-human Fc, VEGF-D dimer as analyte
Experimental: as §3, §4

[16] = target: B1; test: SPR, labelled Protocol B in this table
[17] = target: B3; test: SPR, IgG captured by anti-human IgG (Fc), Source 2 VEGF-D as analyte
[18] = target: B3; test: SPR, IgG captured by anti-human IgG (Fc), Source 2 VEGF-D monomer as analyte
[19] = target: B1; test: SPR, labelled Protocol A in this table; Protocol B by paragraph 399 and Table 7A, though printed as Protocol A
[20] = target: B1; test: SPR; row labelled Protocol A (IgG captured by anti-human Fc, VEGF-D dimer as analyte); Protocol A line of Table 6
Experimental: as §3, §4

**Q.** For B1, which “concentration within EC50-EC80 for proliferation of VEGFR-2-Ba/F3 cells” value [1] is on record?
**A.** The value was 0.005 µg/mL.

**Q.** For B2, which Kd [2] is on record?
**A.** Its Kd is 14.2 nM.

**Q.** And the koff [2]?
**A.** Its koff is 0.0109 s⁻¹.

**Q.** What about the kon [2] of the same binder?
**A.** The kon was 769000 M⁻¹ s⁻¹.

**Q.** What about the Kd [3] of the same binder?
**A.** The Kd was 10.4 nM.

**Q.** What about the koff [3] of the same binder?
**A.** Its koff is 0.011 s⁻¹.

**Q.** And the kon [3]?
**A.** The kon was 1.06e+06 M⁻¹ s⁻¹.

**Q.** And the Kd [4]?
**A.** The Kd was 14.8 nM.

**Q.** What about the koff [4] of the same binder?
**A.** The koff was 0.0104 s⁻¹.

**Q.** What about the kon [4] of the same binder?
**A.** Its kon is 707000 M⁻¹ s⁻¹.

**Q.** What about the Kd [5] of the same binder?
**A.** The Kd was 13.1 nM.

**Q.** What about the koff [5] of the same binder?
**A.** The koff was 0.0108 s⁻¹.

**Q.** And the kon [5]?
**A.** The kon was 845000 M⁻¹ s⁻¹.

**Q.** And the Kd [6]?
**A.** The Kd was 13.1 nM.

**Q.** And the koff [6]?
**A.** Its koff is 0.0108 s⁻¹.

**Q.** What about the kon [6] of the same binder?
**A.** Its kon is 845000 M⁻¹ s⁻¹.

**Q.** And the Kd [7]?
**A.** The Kd was 13.1 nM.

**Q.** What about the koff [7] of the same binder?
**A.** Its koff is 0.0109 s⁻¹.

**Q.** And the kon [7]?
**A.** The kon was 769000 M⁻¹ s⁻¹.

**Q.** With B3 as the binder, how does the “concentration within EC50-EC80 for proliferation of VEGFR-2-Ba/F3 cells” value [1] read?
**A.** Its value is 0.1 µg/mL.

**Q.** How did the “rank in the VEGFR-3-Ba/F3 bioassay” value [8] turn out when B4 was run?
**A.** The value was 7 rank.

**Q.** And the “rank in the VEGFR-3-Ba/F3 bioassay” value [9]?
**A.** The value was 5 rank.

**Q.** And the “Fold-improvement with respect to Ig-1A” value [10]?
**A.** Its value is 5.5 fold.

**Q.** What about the “Fold-improvement with respect to Ig-1A” value [11] of the same binder?
**A.** The value was 4.4 fold.

**Q.** What about the “fold improvement over the original murine anti-VEGF-D monoclonal antibody” value [12] of the same binder?
**A.** The value was 23.6 fold.

**Q.** What about the “fold improvement over the original murine anti-VEGF-D monoclonal antibody” value [13] of the same binder?
**A.** Its value is 11.5 fold.

**Q.** What about the Kd [14] of the same binder?
**A.** The Kd was 0.4 nM.

**Q.** What about the koff [14] of the same binder?
**A.** Its koff is 0.0019 s⁻¹.

**Q.** And the kon [14]?
**A.** Its kon is 4.8e+06 M⁻¹ s⁻¹.

**Q.** What about the Kd [15] of the same binder?
**A.** The Kd was 0.127 nM.

**Q.** What about the koff [15] of the same binder?
**A.** The koff was 5.8e-05 s⁻¹.

**Q.** What about the kon [15] of the same binder?
**A.** The kon was 460000 M⁻¹ s⁻¹.

**Q.** For B5, which Kd [16] is on record?
**A.** Its Kd is 0.7 nM.

**Q.** What about the Kd [14] of the same binder?
**A.** The Kd was 1.8 nM.

**Q.** And the koff [14]?
**A.** Its koff is 0.0013 s⁻¹.

**Q.** And the kon [14]?
**A.** The kon was 720000 M⁻¹ s⁻¹.

**Q.** What about the Kd [17] of the same binder?
**A.** Its Kd is 16.1 nM.

**Q.** What about the koff [17] of the same binder?
**A.** The koff was 0.00901 s⁻¹.

**Q.** And the kon [17]?
**A.** Its kon is 494000 M⁻¹ s⁻¹.

**Q.** And the Kd [15]?
**A.** The Kd was 0.696 nM.

**Q.** And the koff [15]?
**A.** The koff was 0.00049 s⁻¹.

**Q.** What about the kon [15] of the same binder?
**A.** The kon was 710000 M⁻¹ s⁻¹.

**Q.** What about the Kd [18] of the same binder?
**A.** The Kd was 9.2 nM.

**Q.** And the koff [18]?
**A.** Its koff is 0.00678 s⁻¹.

**Q.** And the kon [18]?
**A.** Its kon is 730000 M⁻¹ s⁻¹.

**Q.** What about the Kd [19] of the same binder?
**A.** Its Kd is 0.7 nM.

**Q.** And the koff [20]?
**A.** Its koff is 0.00059 s⁻¹.

**Q.** And the kon [20]?
**A.** Its kon is 680000 M⁻¹ s⁻¹.
